Assay results: PMC11191771

Columns and labels:
[1] = molecular target: PRC2.2 six-subunit complex WT (EZH2, SUZ12, EED, RBAP48, AEBP2, JARID2 119-450) (human, UniProt Q15910-2;Q15022;O75530;Q09028;Q6ZN18;Q92833 …); test: EMSA; 100 mM KCl; EMSA: 50 mM Tris-HCl pH 7.5 (25 C), 100 mM KCl, 2.5 mM MgCl2, 0.1 mM ZnCl2, 2 mM 2-mercaptoethanol?; FP: 50 mM Tris pH 7.5, 10 or 25 mM KCl, 2.5 mM MgCl2, 0.1 mM ZnCl2, 0.1 mg/mL BSA?, room temperature, 5 nM RNA or DNA; conditions: protein: recombinant, tags: His-EZH2, Strep-GFP-AEBP2, Strep-GFP-JARID2, TEV protease treated, copies: 1;1;1;1;1;1, label: 5' 32P (EMSA)
[2] = molecular target: T1, PRC2.2 EZH2 R566Y K568Y Q575Y (3Y) (human, UniProt Q15910-2;Q15022;O75530;Q09028;Q6ZN18;Q92833 …, R566Y;K568Y;Q575Y); test: EMSA; higher affinity than WT; EMSA: 50 mM Tris-HCl pH 7.5 (25 C), 100 mM KCl, 2.5 mM MgCl2, 0.1 mM ZnCl2, 2 mM 2-mercaptoethanol?; FP: 50 mM Tris pH 7.5, 10 or 25 mM KCl, 2.5 mM MgCl2, 0.1 mM ZnCl2, 0.1 mg/mL BSA?, room temperature, 5 nM RNA or DNA; conditions: protein: recombinant; tags: as P1; copies: 1;1;1;1;1;1; label: 5' 32P (EMSA); single G-quadruplex
[3] = molecular target: PRC2.2 EZH2 R566A K568A Q575A (human, UniProt Q15910-2;Q15022;O75530;Q09028;Q6ZN18;Q92833 …, R566A;K568A;Q575A); test: EMSA; binding not affected vs WT; EMSA: 50 mM Tris-HCl pH 7.5 (25 C), 100 mM KCl, 2.5 mM MgCl2, 0.1 mM ZnCl2, 2 mM 2-mercaptoethanol?; FP: 50 mM Tris pH 7.5, 10 or 25 mM KCl, 2.5 mM MgCl2, 0.1 mM ZnCl2, 0.1 mg/mL BSA?, room temperature, 5 nM RNA or DNA; conditions: protein: recombinant; tags: as P1; copies: 1;1;1;1;1;1; label: 5' 32P (EMSA); single G-quadruplex
PRC2.2 EZH2 del353-362 = PRC2.2 EZH2 del353-362 (human, UniProt Q15910-2;Q15022;O75530;Q09028;Q6ZN18;Q92833 …, internal_change); test: EMSA; no obvious reduction vs WT; EMSA: 50 mM Tris-HCl pH 7.5 (25 C), 100 mM KCl, 2.5 mM MgCl2, 0.1 mM ZnCl2, 2 mM 2-mercaptoethanol?; FP: 50 mM Tris pH 7.5, 10 or 25 mM KCl, 2.5 mM MgCl2, 0.1 mM ZnCl2, 0.1 mg/mL BSA?, room temperature, 5 nM RNA or DNA; conditions: protein: recombinant; tags: as P1; copies: 1;1;1;1;1;1; label: 5' 32P (EMSA); single G-quadruplex
[4] = molecular target: T1, PRC2.2 EZH2 R566Y K568Y Q575Y (3Y); test: FP; higher affinity than WT; Kd only in figure; EMSA: 50 mM Tris-HCl pH 7.5 (25 C), 100 mM KCl, 2.5 mM MgCl2, 0.1 mM ZnCl2, 2 mM 2-mercaptoethanol?; FP: 50 mM Tris pH 7.5, 10 or 25 mM KCl, 2.5 mM MgCl2, 0.1 mM ZnCl2, 0.1 mg/mL BSA?, room temperature, 5 nM RNA or DNA; conditions: protein: recombinant; tags: as P1; copies: 1;1;1;1;1;1; label: fluorescent label; single G-quadruplex

B1: 1G4 RNA, no biotin (structured_RNA)
RNA: CAAAAACAAAAACAAAAACAAAAACAAAAAGGGAAGGGAAGGGAAGGGAA
For B1, the Kd ([1]; single G-quadruplex) was 120 nM, the binding result [2] was “binds” and the binding result [3] was “binds”. B1: binds (PRC2.2 EZH2 del353-362).

B2: 1G4 RNA (FP) (structured_RNA)
RNA: CAAAAACAAAAACAAAAACAAAAACAAAAAGGGAAGGGAAGGGAAGGGAA
B2: binds [4].

B3: 2G4 RNA (structured_RNA)
RNA: CAAAAACAAAAACAAAAACAAAAACAAAAAGGGAAGGGAAGGGAAGGGAAACAACAACAACAACAGGGAAGGGAAGGGAAGGGAA
B3 showed a Kd ([1]; two G-quadruplexes) of 32 nM.
